Holding throughout (assay): fluorescence anisotropy
Data set [1] concerns the target T1, Dpo4 (SsoDpo4, Y-family DNA polymerase) (Sulfolobus solfataricus, UniProt Q97W02 1-352).
T1 sequence: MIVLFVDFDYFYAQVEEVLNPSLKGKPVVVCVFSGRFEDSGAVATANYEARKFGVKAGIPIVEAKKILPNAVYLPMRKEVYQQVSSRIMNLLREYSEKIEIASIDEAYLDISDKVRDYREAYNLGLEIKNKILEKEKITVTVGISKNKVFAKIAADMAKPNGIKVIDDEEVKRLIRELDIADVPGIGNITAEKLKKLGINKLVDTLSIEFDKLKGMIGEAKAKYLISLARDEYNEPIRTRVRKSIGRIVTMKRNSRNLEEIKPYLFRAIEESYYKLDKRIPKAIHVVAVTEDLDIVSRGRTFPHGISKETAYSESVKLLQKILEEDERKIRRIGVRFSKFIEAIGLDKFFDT

In data set [2] the target is T2, Dpo1 exo- (SsoDpo1, B-family DNA polymerase) (Sulfolobus solfataricus, UniProt P26811 1-882, D231A;D318A).
T2 sequence: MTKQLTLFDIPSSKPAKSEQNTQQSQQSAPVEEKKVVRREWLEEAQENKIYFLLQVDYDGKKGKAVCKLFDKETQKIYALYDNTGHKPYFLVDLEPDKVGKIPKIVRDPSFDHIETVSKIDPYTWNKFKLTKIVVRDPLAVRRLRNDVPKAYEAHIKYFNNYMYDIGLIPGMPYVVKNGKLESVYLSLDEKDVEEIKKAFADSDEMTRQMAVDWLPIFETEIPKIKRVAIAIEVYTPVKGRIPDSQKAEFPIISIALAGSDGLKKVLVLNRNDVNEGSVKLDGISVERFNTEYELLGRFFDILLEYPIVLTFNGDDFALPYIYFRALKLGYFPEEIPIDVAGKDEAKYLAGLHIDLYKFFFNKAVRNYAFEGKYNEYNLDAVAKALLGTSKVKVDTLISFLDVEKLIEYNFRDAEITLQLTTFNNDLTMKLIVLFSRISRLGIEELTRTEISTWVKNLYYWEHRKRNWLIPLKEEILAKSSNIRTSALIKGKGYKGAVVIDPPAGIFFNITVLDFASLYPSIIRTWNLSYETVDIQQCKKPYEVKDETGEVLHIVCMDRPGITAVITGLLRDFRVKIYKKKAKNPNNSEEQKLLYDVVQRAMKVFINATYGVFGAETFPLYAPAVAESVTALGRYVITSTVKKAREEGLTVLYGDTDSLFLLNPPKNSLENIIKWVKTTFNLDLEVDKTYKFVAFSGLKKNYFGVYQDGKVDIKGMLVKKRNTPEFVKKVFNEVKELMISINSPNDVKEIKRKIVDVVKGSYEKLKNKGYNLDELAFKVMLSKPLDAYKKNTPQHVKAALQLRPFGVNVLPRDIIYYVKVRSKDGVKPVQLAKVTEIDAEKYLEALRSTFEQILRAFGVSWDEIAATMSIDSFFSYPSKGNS

Data set [3] addresses T2, Dpo1 exo- (SsoDpo1, B-family DNA …). This is another data set of the same source.
For data set [4], the target named is T1, Dpo4 (SsoDpo4, Y-family DNA polymerase). This is another data set of the same source.
The target in data set [5] is T2, Dpo1 exo- (SsoDpo1, B-family DNA …). This is another data set of the same source.
Data set [6] has the same target. The source holds these as a separate data set.
The target of data set [7] is T1, Dpo4 (SsoDpo4, Y-family DNA polymerase). The source holds these as a separate data set.

Among the data in publication PMC3477848 (Biochemistry, 2012) are Kd values, retold here.

Where two headings read alike, the source gives them in different places.

As for TTTTTTTTTTCCCGGGCCGGCGTTTCGCCGGCCCGGG (structured_DNA) [37-nt hairpin primer-template, 5'-Cy3], the Kd in data set [1] turned out to be 329 ± 107 nM; in data set [2], 208 ± 57 nM; in data set [3] it was 109 ± 16 nM; in data set [4], 164 ± 9 nM; in data set [5], 113 ± 32 nM; in data set [6], 198 ± 26 nM. In data set [7], this molecule came in with a Kd of 674 ± 80 nM.
